T1: Vps8 with 3xFLAG tag (CORVET subunit) (yeast, UniProt P39702 1-1274)
T1 construct: UniProt P39702 printed for its AlphaFold model
T1 sequence: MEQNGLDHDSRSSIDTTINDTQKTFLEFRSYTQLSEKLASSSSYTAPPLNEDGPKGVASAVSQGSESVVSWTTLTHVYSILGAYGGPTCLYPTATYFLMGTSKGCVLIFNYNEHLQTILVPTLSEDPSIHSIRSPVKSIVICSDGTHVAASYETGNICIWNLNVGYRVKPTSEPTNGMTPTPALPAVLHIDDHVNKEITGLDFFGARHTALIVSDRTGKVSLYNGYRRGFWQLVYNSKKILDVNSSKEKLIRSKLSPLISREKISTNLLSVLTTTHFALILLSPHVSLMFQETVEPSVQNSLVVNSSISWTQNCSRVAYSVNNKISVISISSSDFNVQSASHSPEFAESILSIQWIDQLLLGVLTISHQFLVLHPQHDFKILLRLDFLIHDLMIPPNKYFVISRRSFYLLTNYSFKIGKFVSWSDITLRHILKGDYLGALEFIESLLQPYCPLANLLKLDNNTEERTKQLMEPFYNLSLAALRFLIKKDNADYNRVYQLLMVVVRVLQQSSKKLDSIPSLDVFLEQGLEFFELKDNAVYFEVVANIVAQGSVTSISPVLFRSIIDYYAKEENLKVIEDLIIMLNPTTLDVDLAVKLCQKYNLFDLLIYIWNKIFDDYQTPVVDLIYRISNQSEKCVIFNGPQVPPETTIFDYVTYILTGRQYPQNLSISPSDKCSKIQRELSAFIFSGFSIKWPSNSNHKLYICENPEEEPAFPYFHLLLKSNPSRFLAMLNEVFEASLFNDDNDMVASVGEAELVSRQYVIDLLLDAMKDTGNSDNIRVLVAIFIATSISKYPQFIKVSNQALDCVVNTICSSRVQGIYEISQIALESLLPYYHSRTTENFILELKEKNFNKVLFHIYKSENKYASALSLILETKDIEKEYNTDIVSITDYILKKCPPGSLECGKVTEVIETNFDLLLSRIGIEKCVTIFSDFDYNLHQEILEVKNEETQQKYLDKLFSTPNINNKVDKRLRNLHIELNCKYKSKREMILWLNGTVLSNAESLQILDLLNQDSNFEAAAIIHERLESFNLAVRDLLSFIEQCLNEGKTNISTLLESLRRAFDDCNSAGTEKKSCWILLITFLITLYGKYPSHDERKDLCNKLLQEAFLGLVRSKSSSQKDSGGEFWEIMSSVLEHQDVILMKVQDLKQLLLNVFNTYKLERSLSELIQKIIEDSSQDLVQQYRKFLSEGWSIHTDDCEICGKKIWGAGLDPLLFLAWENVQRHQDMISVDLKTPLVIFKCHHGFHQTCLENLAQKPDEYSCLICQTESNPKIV

T2: Vps18 (CORVET and HOPS core subunit) (yeast, UniProt P27801 1-918)
T2 construct: Vps18, yeast, core subunit shared by CORVET and HOPS
T2 sequence: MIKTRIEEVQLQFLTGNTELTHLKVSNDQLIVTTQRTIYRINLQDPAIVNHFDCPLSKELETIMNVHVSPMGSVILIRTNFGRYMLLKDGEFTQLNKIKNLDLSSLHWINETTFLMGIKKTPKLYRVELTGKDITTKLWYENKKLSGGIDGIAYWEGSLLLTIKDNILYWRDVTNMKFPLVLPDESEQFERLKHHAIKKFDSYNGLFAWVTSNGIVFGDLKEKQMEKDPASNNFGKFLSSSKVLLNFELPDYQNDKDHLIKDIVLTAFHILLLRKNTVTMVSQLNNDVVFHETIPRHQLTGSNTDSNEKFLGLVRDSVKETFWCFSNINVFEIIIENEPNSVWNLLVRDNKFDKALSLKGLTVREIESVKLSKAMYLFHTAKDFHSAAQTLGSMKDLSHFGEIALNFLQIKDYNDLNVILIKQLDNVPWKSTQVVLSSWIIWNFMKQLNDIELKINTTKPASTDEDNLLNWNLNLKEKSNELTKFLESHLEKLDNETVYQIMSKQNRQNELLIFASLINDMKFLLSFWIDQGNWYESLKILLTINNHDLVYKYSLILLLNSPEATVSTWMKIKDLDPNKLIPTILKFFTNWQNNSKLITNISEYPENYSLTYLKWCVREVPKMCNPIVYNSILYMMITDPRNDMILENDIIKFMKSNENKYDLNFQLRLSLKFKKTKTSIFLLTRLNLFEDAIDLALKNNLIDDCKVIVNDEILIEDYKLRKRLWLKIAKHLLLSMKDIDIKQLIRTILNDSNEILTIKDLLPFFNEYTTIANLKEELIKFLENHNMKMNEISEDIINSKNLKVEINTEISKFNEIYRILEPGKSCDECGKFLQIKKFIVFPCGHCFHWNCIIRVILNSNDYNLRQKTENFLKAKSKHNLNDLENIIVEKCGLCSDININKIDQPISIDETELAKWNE

B1: Vps3 (CORVET subunit) (natural protein, yeast)
chain: MVKKKTNNDKGKEVKENEGKLDIDSESSPHERENDKKKTEDDSLRATESEETNTHNANPNETVRADKFSQEESRPIEDSPHTDKNTAQESCQPSSAEDNVINTDITSLNEKTSTNDEQEKGLPLKISEGPFTISTLLDNVPSDLIYTCCEAYENHIFLGTTTGDLLHYFELERGNYMLVSQTKFDAESNSKIDKILLLPKVEGALILCDNELVLFILPEFAPRPNTTRLKGISDVVICNFSRSSKAYRIYAFHAEGVRLLKISADSLVLTKAFNFKLIDKACAHEETLMVSKLNSYELINLKSSQVIPLFRISETDEDLEPIITSFNEQSEFLVCSGGGSYDSGAMALVVNHHGDIIKGTIVLKNYPRNVIVEFPYIIAESAFQSVDIYSALPSEKSQLLQSITTSGSDLKISKSDNVFTNTNNSEEFKEKIFNKLRLEPLTHSDNKFRIERERAFVEESYEEKTSLIVYNNLGIHLLVPTPMVLRFTSCEESEIDNIEDQLKKLAKKDLTKFEHIEAKYLMSLLLFLMTLHYDHIEDEVMKKWCDFSDKVDIRILFYMFGWKVYSEIWCFHGLINIVERLKSLKLTNKCENILKMLLMMKNELKKKNKTGLLTNDFDDIMKTIDITLFKLRLEKKETITVDMFERESYDEIIREINLHDDKLPRIELLIEIYKEKGEYLKALNLLREAGDYISLVSFIEENLKKLPEDYIKERIADDLLLTLKQGDENTEECAIKKVLKILDMACINKNDFLNKIPAEETSLKVSFIEQLGVQNSNDSKFLFNYYLAKLREIINQSNIWSILGDFIKEYKDDFAYDKTDITNFIHIKLKHSLQCENFSKYYEKCENLKSENEKDDEFINFTFDEISKIDKEHILTLLFFPNELTNWVSSEELLKIYLSFNDFRSVEKYIGKQNLVAVMKQYLDISSLNYSVELVTNLLQRNFELLDDTDIQLKILETIPSVFPVQTISELLLKVLIKYQEKKEESNLRKCLLKNQISISDELSRNFDSQG
notes: UniProt P23643 printed for its AlphaFold model; N-terminal half (with the β-propeller) was removed from the deposited model; source: yeast lysate in the Vps8-ALFA pull-downs
B2: Vps16 (CORVET and HOPS subunit, SNARE-binding module) (natural protein, yeast)
chain: MKNPSFDWERLKDVFYRSRAIGELKWPTQYEEFKCALSLTVIAVEIQDFIQVYNYFGQLLGKINLQRIHEDIIKFEFDKDEKLILVTKSSIKIVKGWSPLTIESVPLQDPTIDTIWDYHNGIMLLAKSRDIYKLNGNEWELLYENKDKKYNLLTKNHWSCNDDSIILLDVDHVYQVSTSNGALLKLITDSSWHKVTISSRGFICLYNMKDNKLQIFRDPARILMEHNLDSTPDDICWCGNDTVACSFEDEIKLYGPDGLYVTFWYPFTVTNLRAEVDGLKVITTEKIYFLSRVQPQTSNIFRIGSTEPGAMLVDSFSLLEDHAPKAIEILKNFVLEKGVLDCIAAAIDEFEPKLQKMLLNAASYGKASLQYKSFDASIFVNACNTIKLLNCFRSFGIFLTVEEYRCISLKGVIDRLLKYHRYYECIQICKLANERFLLGYVFTEWAKDKIKGSPDMEDDELLDKIKSRLSVIDMTDTLQMVAVAKVAYLEGRFQLSRNLALLEKNEEARIEQLYNLDDDSIALKECIKVQNYSLTISLLIALSKKLTNSQLTKLLIIDMFNNPLYLYYMRMDKAYLYDFYRQTDRFIDLAHVLLQQGKEQQSLHSFLPQIKDLYSQVQNSEVVNNTIEQLQRQEKLWIYQESLGKRFAISFTNMTLDQTLSKLIETGQDKQVKEIVKKFKISEKKLYHLKCKTLVEAKKFDELLQFAQSRKSPIGYMPFYTYLKSRGHMDKASPYVNMIPGLSYQEKKKLYVECRGFRDAIQLAGKEKDIPGLKEIYNIIPPNEPELKALANETMSRI
notes: Vps16, yeast, subunit shared by CORVET and HOPS
B3: Vps11 (CORVET and HOPS core subunit) (natural protein, yeast)
chain: MSLSSWRQFQLFENIPIRDPNFGGDSLLYSDPTLCAATIVDPQTLIIAVNSNIIKVVKLNQSQVIHEFQSFPHDFQITFLKVINGEFLVALAESIGKPSLIRVYKLEKLPNREQLYHSQVELKNGNNTYPISVVSISNDLSCIVVGFINGKIILIRGDISRDRGSQQRIIYEDPSKEPITALFLNNDATACFAATTSRILLFNTTGRNRGRPSLVLNSKNGLDLNCGSFNPATNEFICCLSNFIEFFSSSGKKHQFAFDLSLRKRIFCVDKDHILIVTEETGVPTTSISVNELSPTIINRIFIIDAKNKIISLNFVVSSAIIDIFSTSQSGKNITYLLTSEGVMHRITPKSLENQINIIIQKELYPFALQLAKQHSLSPLDVQEIHKKYGDYLFKKGLRKEATDQYIQCLDVVETSEIISKFGVKEVPDPESMRNLADYLWSLIKNSISQRDHVTLLLIVLIKLKDVEGIDTFIQHFDRKGIWNEGVVMDDMDDVTFFYSDNDFFDLDLILELMKESDFKRLSYRLAKKYSKDSLIIVDILLNLLHNPVKAIKYIKSLPIDETLRCLVTYSKKLLEESPNETNALLIEVFTGKFKPSTFEVDLDRRDTTGDFSENIRTVFYSYKTFFNYMNSNGTSDAMSESSEASHEHEEPTYHPPKPSIVFSSFVTKPFEFVVFLEACLACYQQYEGFDEDRQVILTTLYDLYLNLAQNDVPERIDDWRSRATGVLRESNKLVYSAASNNTSKRVDNSIMLLISHMDQSSASAKDKTKIDIASFANDNPEMDLLSTFRAMTLNEEPSTCLKFLEKYGTEEPKLLQVALSYFVSNKLIFKEMGGNEVLKEKVLRPIIEGERMPLLDIIKALSRTNVAHFGLIQDIIIDHVKTEDTEIKRNEKLIESYDKELKEKNKKLKNTINSDQPLHVPLKNQTCFMCRLTLDIPVVFFKCGHIYHQHCLNEEEDTLESERKLFKCPKCLVDLETSNKLFEAQHEVVEKNDLLNFALNSEEGSRDRFKVITEFLGRGAISYSDITI
notes: Vps11, yeast, core subunit shared by CORVET and HOPS

Key:
Assay in all cases: cryo-EM structure; single-particle cryo-EM of the hexameric CORVET co-expressed in yeast and purified by 3xFLAG on Vps8 and SEC; about 0.8 mg/ml; consensus map 4.6 Å, local refinements to 3.8 Å
Conditions in all cases: both partners purified
[1] = target: B3
[2] = target: T1, Vps8 with 3xFLAG tag (CORVET subunit)
[3] = target: T2, Vps18 (CORVET and HOPS core subunit)

| binding result [1] | binding result [2] | binding result [3] | Binder |
| --- | --- | --- | --- |
| binds |  |  | B1 |
|  | binds | binds | B2 |
|  | binds |  | B3 |
